Data: patent publication US20070160576A1, “IL-17A/F heterologous polypeptides and therapeutic uses thereof” (Genentech, Inc., priority 2001, published 2007)
Entries after “also recorded” stand apart in the source; their conditions may differ.

Columns and labels:
TK-10 cells = test: IL-8 and IL-6 production in TK-10 cells (ELISA of conditioned media); assay type: cell-based, human; details: TK-10 cells, 24 hours, IL-8 ELISA
Description: Fractions were tested by incubation with TK-10 cells for 24 hours (0.033 microliters fraction/ml of cell culture media). Conditioned media was then collected and IL-8 and IL-6 concentration measurements were performed on each fraction by ELISA. […] Gels, blots, amino acid sequence and activity assays were run on this fraction (FIG. 3). Alternatively, fraction 31 and the remaining volume of fraction 32, from the HiLoad S Sepharose run were pooled and dialyzed against Buffer A for eight hours using a 10 kD cutoff membrane and passed through a 0.2 micron filter. […] Fractions 26-43 were assayed and protein concentrations were determined by amino acid analysis. Pure IL-17A/F was identified in fractions 31-33 as a single protein with apparent molecular mass of 30-35 kD. The concentrations of fractions 31, 32 and 33 were 0.258, 0.359 and 0.291 mg/ml respectively.
IL-17A/F, IL-17 and IL-17F were incubated with TK-10 cells at the indicated concentrations for 24 hours.
TK-10 conditioned media was collected and analyzed by IL-8 ELISA and IL-6 ELISA.

IL-17RH1 (PRO5801) = target: T1, IL-17RH1 (PRO5801) (Homo sapiens, UniProt Q9NRM6); test: SPR (BIAcore) binding measurements; details: for Koff × 10^4: value is Koff × 10^4; for Kon × 10^−5: value is Kon × 10^−5
T1 construct: the extracellular domains (ECDs) of either of the two receptors IL-17R (designated PRO1) and IL-17RH1 (PRO5801)
T1 sequence (Q9NRM6 18-292 limits assumed): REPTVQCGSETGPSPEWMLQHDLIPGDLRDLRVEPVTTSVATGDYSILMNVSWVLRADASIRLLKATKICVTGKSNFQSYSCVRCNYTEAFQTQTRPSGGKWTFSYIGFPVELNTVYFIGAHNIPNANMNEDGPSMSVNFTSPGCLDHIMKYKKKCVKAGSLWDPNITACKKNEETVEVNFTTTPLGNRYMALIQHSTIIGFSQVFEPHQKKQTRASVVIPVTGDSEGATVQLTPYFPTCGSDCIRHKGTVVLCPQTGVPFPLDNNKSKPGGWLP
Description: (§1) The kinetics and affinity of IL-17, IL-17E (PRO10272), or IL-17F (PRO20110) binding to IL-17R or IL-17RH1 (PRO5801) were determined by SPR measurements on a Pharmacia BIAcore 1000 instrument (Phamacia Biosensor, Piscataway N.J.). IL-17 ligand or receptor was immobilized onto a flow cell of a CM5 sensor chip via random coupling to amino groups, N-hydroxysuccinimide chemistry, by using a protocol developed by the manufacturer. An immobilization level of about 500 resonance units (RU) was obtained for IL-17R, IL-17RH1, and IL-17F, whereas IL-17 and IL-17E immobilization levels were 1200 and 1500 RU, respectively. A strong signal was obtained for IL-17R binding to immobilized IL-17. […] After blocking unreacted sites with ethanolamine, binding measurements were performed using a flow rate of 25 ┘L/min. Sensorgrams-were obtained for a series of six, two-fold serially diluted protein solutions. The highest concentration used was 1000 or 500 nM protein and the solutions were prepared in the running buffer, PBS containing 0.05% Tween-20. The sensor chip surface was regenerated between binding cycles by injection of a 25 ┘L aliquot of 0.1 M acetic acid, 0.2 M NaCl, pH 3 to elute non-covalent bound protein. Sensorgrams were evaluated according to a 1:1 binding model by non-linear regression analysis using software supplied by the manufacturer. In separate experiments to measure competition between IL-17 variants for binding receptors, a fixed concentration of receptor was incubated with a varied concentration of IL-17 protein followed by injection of this mixture onto a flow cell having immobilized IL-17 protein. The amount of bound receptor was determined from the resonance signal obtained after completion of the association phase.

IL-17R [1] = target: T2, IL-17R (Homo sapiens, UniProt Q96F46); test: SPR (BIAcore) binding measurements; details: for SPR binding to IL-17R (in words): IL-17R in solution, cytokine immobilized
T2 construct: the extracellular domains (ECDs) of either of the two receptors IL-17R (designated PRO1) and IL-17RH1 (PRO5801)
Description: as §1

IL-17R [2] = target: T2, IL-17R; test: SPR competition for receptor binding to immobilized IL-17; details: IL-17R 500 nM; IL-17F at 2 ┘M
Description: as §1, with “The sensor chip surface was regenerated between binding cycles by injection of a 25 ┘L aliquot of 0.1 M acetic acid, 0.2 M NaCl, pH 3 to elute non-covalent bound protein.” left out, “In separate experiments to measure competition between IL-17 variants for binding receptors, a fixed concentration of receptor was incubated with a varied concentration of IL-17 protein followed by injection of this mixture onto a flow cell having immobilized IL-17 protein.” left out, “phase. […]” for “phase.”

[3] = target: human IL-17 receptor (IL-17R, PRO1) (Homo sapiens, UniProt Q96F46); test: Receptor/ligand interaction screening assay (immunoadhesin); assay type: binding
Description: (§2) In general, the assay is performed as follows. A PRO polypeptide of the present invention suspected of being a ligand for a receptor is expressed as a fusion protein containing the Fc domain of human IgG (an immunoadhesin). Receptor-ligand binding is detected by allowing interaction of the immunoadhesin polypeptide with cells (e.g. Cos cells) expressing candidate PRO polypeptide receptors and visualization of bound immunoadhesin with fluorescent reagents directed toward the Fc fusion domain and examination by microscope. Cells expressing candidate receptors are produced by transient transfection, in parallel, of defined subsets of a library of cDNA expression vectors encoding PRO polypeptides that may function as receptor molecules. Cells are then incubated for 1 hour in the presence of the PRO polypeptide immunoadhesin being tested for possible receptor binding. The cells are then washed and fixed with paraformaldehyde. The cells are then incubated with fluorescent conjugated antibody directed against the Fc portion of the PRO polypeptide immunoadhesin (e.g. FITC conjugated goat anti-human-Fc antibody). The cells are then washed again and examined by microscope. A positive interaction is judged by the presence of fluorescent labeling of cells transfected with cDNA encoding a particular PRO polypeptide receptor or pool of receptors and an absence of similar fluorescent labeling of similarly prepared cells that have been transfected with other cDNA or pools of cDNA. If a defined pool of cDNA expression vectors is judged to be positive for interaction with a PRO polypeptide immunoadhesin, the individual cDNA species that comprise the pool are tested individually (the pool is “broken down”) to determine the specific cDNA that encodes a receptor able to interact with the PRO polypeptide immunoadhesin.
(§3) In another embodiment of this assay, an epitope-tagged potential ligand PRO polypeptide (e.g., 8 histidine “His” tag) is allowed to interact with a panel of potential receptor PRO polypeptide molecules that have been expressed as fusions with the Fc domain of human IgG (immunoadhesins). Following a 1 hour co-incubation with the epitope tagged PRO polypeptide, the candidate receptors are each immunoprecipitated with protein A beads and the beads are washed. Potential ligand interaction is determined by Western blot analysis of the immunoprecipitated complexes with antibody directed towards the epitope tag. An interaction is judged to occur if a band of the anticipated molecular weight of the epitope tagged protein is observed in the Western blot analysis with a candidate receptor, but is not observed to occur with the other members of the panel of potential receptors.

[4] = target: T3, IL-17R on transfected Cos cells (human, UniProt Q96F46 33-866); test: binding to transfected Cos cells; data not shown
T3 construct: whole, on cells; also called Cos cells transfected with IL-17R

[5] = target: T4, IL-17RH1 (PRO5801) extracellular domain, purified, monomeric (human, UniProt Q9NRM6 18-292); test: SPR (BIAcore), IL-17F immobilized
T4 construct: extracellular domain
T4 sequence (looked up): T1 sequence (Q9NRM6 18-292 limits assumed)
Description: (§4) Sensorgrams-were obtained for a series of six, two-fold serially diluted protein solutions. The highest concentration used was 1000 or 500 nM protein and the solutions were prepared in the running buffer, PBS containing 0.05% Tween-20. The sensor chip surface was regenerated between binding cycles by injection of a 25 ┘L aliquot of 0.1 M acetic acid, 0.2 M NaCl, pH 3 to elute non-covalent bound protein. Sensorgrams were evaluated according to a 1:1 binding model by non-linear regression analysis using software supplied by the manufacturer. […] The amount of bound receptor was determined from the resonance signal obtained after completion of the association phase.

[6] = target: T4, IL-17RH1 (PRO5801) extracellular …; test: SPR (BIAcore 1000), IL-17E immobilized, 1:1 model
Description: as §4

IL-17RH1 = target: T5, IL-17RH1 (Homo sapiens, UniProt Q9NRM6); test: SPR competition for receptor binding to immobilized IL-17E; details: IL-17RH1 31 nM; IL-17F at 1.3 ┘M
T5 construct: the extracellular domains (ECDs) of either of the two receptors IL-17R (designated PRO1) and IL-17RH1 (PRO5801)
T5 sequence (Q9NRM6 18-292 limits assumed): T1 sequence (Q9NRM6 18-292 limits assumed)
Description: as §1, with “The sensor chip surface was regenerated between binding cycles by injection of a 25 ┘L aliquot of 0.1 M acetic acid, 0.2 M NaCl, pH 3 to elute non-covalent bound protein.” left out, “In separate experiments to measure competition between IL-17 variants for binding receptors, a fixed concentration of receptor was incubated with a varied concentration of IL-17 protein followed by injection of this mixture onto a flow cell having immobilized IL-17 protein.” left out, “phase. […]” for “phase.”

[7] = target: T6, IL-17R (PRO1) extracellular domain, purified, monomeric (human, UniProt Q96F46 33-320); test: SPR (BIAcore)
T6 construct: extracellular domain; also called human IL-17 receptor
Description: as §4

[8] = target: T7, PRO5801 (human IL-17RH1 receptor) (Homo sapiens, UniProt Q9NRM6); test: Receptor/ligand interaction screening assay (immunoadhesin); assay type: binding
T7 sequence (Q9NRM6 18-502): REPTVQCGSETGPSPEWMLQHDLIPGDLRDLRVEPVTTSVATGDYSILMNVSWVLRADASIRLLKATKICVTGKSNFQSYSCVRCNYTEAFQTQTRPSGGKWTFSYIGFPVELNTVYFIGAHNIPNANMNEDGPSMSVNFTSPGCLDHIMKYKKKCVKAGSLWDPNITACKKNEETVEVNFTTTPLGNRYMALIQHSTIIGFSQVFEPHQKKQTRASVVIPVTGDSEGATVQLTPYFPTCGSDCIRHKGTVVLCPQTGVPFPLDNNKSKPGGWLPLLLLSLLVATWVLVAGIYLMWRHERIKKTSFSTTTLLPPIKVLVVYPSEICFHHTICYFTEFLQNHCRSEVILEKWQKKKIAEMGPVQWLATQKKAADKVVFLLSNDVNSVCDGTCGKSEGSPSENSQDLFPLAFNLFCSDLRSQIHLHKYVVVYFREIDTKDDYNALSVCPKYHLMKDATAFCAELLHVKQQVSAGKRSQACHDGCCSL
Description: as §2, §3

[9] = target: T4, IL-17RH1 (PRO5801) extracellular …; test: SPR (BIAcore 1000), IL-17RH1 immobilized, 1:1 model
[10] = immobilized IL-17E, ligand IL-17RH1
[11] = immobilized IL-17RH1, ligand IL-17E

Molecule: IL-17: human IL-17 cytokine, SEQ ID NO:3
- IL-8 production (TK-10 cells): production of IL-8
- SPR binding to IL-17RH1 (in words) (IL-17RH1 (PRO5801)): no binding was observed
- SPR signal for binding to immobilized IL-17R (IL-17R [1]; IL-17R immobilized): weak signal
- SPR binding to IL-17R (in words) (IL-17R [1]): strong signal; also recorded: modest binding affinity
- Koff × 10^4 (IL-17R [1]; immobilized IL-17, ligand IL-17R, value is Koff × 10^4): 6.7 s^−1
- Kon × 10^−5 (IL-17R [1]; immobilized IL-17, ligand IL-17R, value is Kon × 10^−5): 0.093 M^−1 s^−1
- competition for binding of IL-17R to immobilized IL-17 (IL-17R [2]): efficiently block binding
- binding to human IL-17 receptor (IL-17R, PRO1) [3]: binds to

B1: human IL-17F (PRO20110) (ligand)
chain: RKIPKVGHTFFQKPESCPPVPGGSMKLDIGIINENQRVSMSRNIESRSTSPWNYTVTWDPNRYPSEVVQAQCRNLGCINAQGKEDISMNSVPIQQETLVVRRKHQGCSVSFQLEKVLVTVGCTCVTPVIHHVQ
notes: disulfide-linked homodimer, glycosylated at Asn 53
- binding result [4]: binds
- binding result [5]: no binding (tested: up to 0.5 µM (printed 0.5 ┘M))

B2: human IL-17E (PRO10272), protein used in SPR (ligand, UniProt Q9H293 33-177, looked up)
chain: YSHWPSCCPSKGQDTSEELLRWSTVPVPPLEPARPNRHPESCRASEDGPLNSRAISPWRYELDRDLNRLPQDLYHARCLCPHCVSLQTGSHMDPRGNSELLYHNQTVFYRRPCHGEKGTHKGYCLERRLYRVSLACVCVRPRVMG
notes: construct not described
- Kd [6]: 1.1 nM
- koff [6]: 0.0007 s⁻¹
- kon [6]: 670000 M⁻¹ s⁻¹
- SPR binding to IL-17RH1 (in words) (IL-17RH1 (PRO5801)): high affinity binding
- Koff × 10^4 (IL-17RH1 (PRO5801); [10]): 7.0 s^−1
- Kon × 10^−5 (IL-17RH1 (PRO5801); [10]): 6.7 M^−1 s^−1
- Koff × 10^4 (IL-17RH1 (PRO5801); [11]): 6.2 s^−1
- Kon × 10^−5 (IL-17RH1 (PRO5801); [11]): 4.3 M^−1 s^−1
- SPR binding to IL-17R (in words) (IL-17R [1]): no binding was observed
- competition for binding of IL-17RH1 to immobilized IL-17E (IL-17RH1): completely inhibited
- binding result [7]: no binding
- binding to IL-17RH1 receptor (PRO5801) [8]: binds to
- Kd [9]: 1.4 nM
- koff [9]: 0.00062 s⁻¹
- kon [9]: 430000 M⁻¹ s⁻¹
